Results from patent publication US6046014.

How the values were obtained:
[1] = molecular target: streptavidin-agarose (immobilized streptavidin) (Streptomyces avidinii) (UniProt P22629); assay: affinity chromatography: ammonium sulfate fraction passed over streptavidin-agarose
[2] = molecular target: streptavidin-agarose (immobilized streptavidin) (Streptomyces avidinii) (UniProt P22629); assay: affinity chromatography on streptavidin-agarose

Question: With “Strep-tagged oat phytochrome A (ASPHYA-ST)” as the substance, how does the efficiency of binding [1] read?
Answer: 86%

Question: And the binding capacity (µg ASPHYA-ST per milliliter bed volume) [2]?
Answer: 200
